The source of these data is PMC3614016.

Assay [1] addresses mutant human PCNA (surface-exposed cysteines mutated, N107C), unlabeled (human) (UniProt P12004). The experiment in a line: stopped-flow FRET between Cy3-P/T DNA and Cy5-PCNA, trapping experiment with polδ; As a2, with polδ at a ratio of 1:1:1 PCNA:Cy5-PCNA:polδ. The substrates were Cy3-P/T DNA, Cy3-P/T DNA-No Flap and Cy3-P/T DNA-25 bp. The read-out is the overall amplitude of reloading over that of unloading (0.5 = all unlabeled PCNA unloaded, 1.0 = all unlabeled PCNA kept on DNA).

The target of the next assay is PCNA (Homo sapiens) (UniProt P12004). To be noted: cited from earlier work.

With “wild-type human DNA polymerase δ (polδ) (complex)”, in assay [1], the A (T,Reload)/A (T,Unload) with polδ (Cy3-P/T DNA) amounted to 1, the A (T,Reload)/A (T,Unload) with polδ (Cy3-P/T DNA-25 bp) came to 1 and the A (T,Reload)/A (T,Unload) with polδ (Cy3-P/T DNA-No Flap) stood at 0.99.

A word on the Kd: it is the concentration at which binding is half-saturated. Regarding RFC (from UniProt P35251), the Kd in the assay with PCNA (Homo sapiens) was 0.2 nM.
